Substitutions are numbered along the chain they refer to.
B1: LD3_v3 (designed binder)
chain: QRWELALGRFLEYLSWVSTLSEQVQEELLSSQVTQELRALMDETMKELKAYKSELEEQLTPVAEETRARLSKELQAAQARLGADMEDVRGRLVQYRGEVQAMLGQSTEELRVRLASHLIALALRLIGAAFDLQKRLAVY
B2: LD3_v1 (designed binder)
chain: B1 chain with E12A, A128D
B3: LD3_v2 (designed binder)
chain: B1 chain with R124A, A128D

Biological target: Bcl2 (UniProt P10415 1-239)
Assay: SPR

Chain of Bcl2 (P10415 whole entry): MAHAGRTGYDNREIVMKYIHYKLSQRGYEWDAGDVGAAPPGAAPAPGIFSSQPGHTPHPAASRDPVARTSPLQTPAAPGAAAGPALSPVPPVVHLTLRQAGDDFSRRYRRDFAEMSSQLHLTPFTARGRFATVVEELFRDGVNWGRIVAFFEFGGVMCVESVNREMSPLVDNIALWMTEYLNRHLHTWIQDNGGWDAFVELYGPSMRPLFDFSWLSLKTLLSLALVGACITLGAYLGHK

Row | Binder | Kd [nM]
1 | B1 | 147
2 | B2 | 16.8
3 | B3 | 64.1

From article PMC8486872 (2021)
